# Reference: the supplement of paper PMC9732359
# ± gives the uncertainty stated by the source.
# Test: protein stability index of a GFP-peptide fusion (yeast GPS) (PSI 1-4); higher = more stable; sorted into four equal gates, so the index is relative within each strain
# In short: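 Each library plasmid carries Cherry plus GFP with a tiled 17-residue yeast protein peptide fused downstream, and the pooled library was carried in yeast. Mid-log cultures in leucine-free medium were sorted into four equal gates by GFP/Cherry ratio. Reads from Illumina sequencing of PCR-amplified plasmids from each gate were assigned to strains by barcodes. Per peptide, the protein stability index was computed as the summed products of gate read frequency and gate number.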
Sequence,protein stability index (doa10∆),protein stability index (pdr5∆),protein stability index (san1∆),protein stability index (ubr1∆)
HMDYDGNIVKEFENKFQ [YMR129W/POM152],3.28 ± 0.069,3.33 ± 0.082,3.36 ± 0.049,3.22 ± 0.055
DLLHPTAASEARKHKLK [RPS27A],2.29 ± 0.1,3.11 ± 0.068,2.53 ± 0.11,3.07 ± 0.072
NIKLLNNRMGSYDCTGV [POP1],2.85 ± 0.078,2.8 ± 0.059,2.83 ± 0.071,3 ± 0.042
SKAPAEKKPAAKKTSTS [HTB1],3.17 ± 0.13,3.01 ± 0.069,2.83 ± 0.08,3.33 ± 0.11
LNWFRTTNMNVNNCIWA [RGR1],2.22 ± 0.057,1.34 ± 0.045,1.15 ± 0.12,1.28 ± 0.036
AIPLQQVLSQSADPSLL [SWI1],2.86 ± 0.22,2.5 ± 0.13,–,3.06 ± 0.17
LSVVKYLLASLKDSKDF [RPN9],2.19 ± 0.12,2.67 ± 0.16,–,–
WVTEVLGNDIPHDLIIG [BRR2],2.17 ± 0.042,2.95 ± 0.056,2.29 ± 0.063,2.89 ± 0.046
MNAILTDVKLTLPQPRL [SMD1],2.98 ± 0.079,2.96 ± 0.097,2.65 ± 0.079,3.11 ± 0.076
LDRISSYTAFSRLTLLL [PRP8],1.86 ± 0.047,1.59 ± 0.044,1.93 ± 0.068,1.95 ± 0.035
SSIVAIDWASPEYGRII [YGL100W/SEH1],2.57 ± 0.13,3.16 ± 0.13,2.82 ± 0.079,2.69 ± 0.061
YQWRDLIARRDDESPRF [RRP6],3.23 ± 0.077,3.42 ± 0.067,3.24 ± 0.057,3.26 ± 0.068
TLISENWWHSEFEIPVS [BRR2],1.84 ± 0.11,1.59 ± 0.058,1.8 ± 0.1,1.25 ± 0.059
QKRIENGGNSVITLAEY [SRP68],2.47 ± 0.076,2.89 ± 0.081,2.9 ± 0.069,3.22 ± 0.1
TVVTVVSTAKFSGKYLK [RPL22A],3.18 ± 0.12,3.13 ± 0.083,3.38 ± 0.17,2.96 ± 0.065
ERVSPTDIEEGMRVGVD [RPT1],3.16 ± 0.14,3.4 ± 0.14,2.83 ± 0.096,3.16 ± 0.12
SRMRLIRQDVNLGRAVF [PRP8],2.06 ± 0.085,2.31 ± 0.061,2.04 ± 0.084,2.35 ± 0.054
VTKDLKLRREDEIIVYA [REC8],2.8 ± 0.069,2.73 ± 0.05,3.18 ± 0.056,2.96 ± 0.044
NVEPTENAYKSENAPSA [YAR002W/NUP60],2.81 ± 0.094,3.02 ± 0.12,2.29 ± 0.16,3.03 ± 0.12
ALEFVSLLLSSVKESTG [SRB4],1.26 ± 0.046,1.61 ± 0.043,1.4 ± 0.11,1.24 ± 0.048
DGKLIDISGTMSGGGNH [SMC4],3.42 ± 0.11,3.4 ± 0.11,3.54 ± 0.075,3.6 ± 0.088
PFQLDVADMLTPEYAAE [UBP6],2.95 ± 0.17,2.65 ± 0.19,2.7 ± 0.085,2.77 ± 0.16
PSIIFIDEVDSIATKRF [RPT3],3.05 ± 0.096,3.1 ± 0.067,2.96 ± 0.046,3.19 ± 0.068
MATNKIETLDPALIRPG [RPT2],3.23 ± 0.1,3.31 ± 0.12,2.96 ± 0.081,3 ± 0.075
NYIYAGYENGMLAQWDL [RPN14],2.92 ± 0.13,3.07 ± 0.14,3.06 ± 0.1,3.14 ± 0.078
SNTVNANNYSSNIGNNS [YDL088C/ASM4],3.17 ± 0.14,3.39 ± 0.14,3.33 ± 0.12,3.19 ± 0.066
NAKESNYTDLIWFPEDF [MED1],3.06 ± 0.094,3.47 ± 0.17,3.17 ± 0.12,2.28 ± 0.052

Sequence,protein stability index (doa10∆),protein stability index (pdr5∆),protein stability index (san1∆),protein stability index (ubr1∆)
IVVQLNGRLNKCGVISP [RPS22A],3.25 ± 0.19,3.35 ± 0.14,2.98 ± 0.093,3.49 ± 0.079
MKPKAEKESDDGLLEYL [SMC4],3.58 ± 0.17,3.37 ± 0.16,3.31 ± 0.18,–
ICEDPETAKKITFHPKI [SMC2],2.84 ± 0.1,2.74 ± 0.084,2.16 ± 0.28,2.9 ± 0.077
FDVNNIDMHLIYGVEWL [YDL116W/NUP84],2.12 ± 0.059,2.09 ± 0.049,1.92 ± 0.074,2.27 ± 0.044
RESRIVSTEGNVPQTLA [RPL21A],2.13 ± 0.08,2.25 ± 0.082,2.94 ± 0.1,2.3 ± 0.095
LVDDENEPSQSLISTRN [BRN1],3.22 ± 0.058,3.4 ± 0.064,3.19 ± 0.047,3.15 ± 0.057
HGIVFQHPFPLAHSQHR [SSN2],2.14 ± 0.066,2.23 ± 0.068,2.01 ± 0.085,2.38 ± 0.078
LSFGTATSDNKTTNTTP [YJL041W/NSP1],2.21 ± 0.088,3.05 ± 0.083,2.24 ± 0.1,2.15 ± 0.094
YGFEDESAPITAEDSWA [RPB2],3.06 ± 0.058,3.16 ± 0.055,3.35 ± 0.042,3.17 ± 0.053
DSSLQPEYFESPLQSSK [YMR129W/POM152],3.19 ± 0.2,2.98 ± 0.12,–,2.56 ± 0.13
TPMTRISELPPQIRQEI [YGL172W/NUP49],2.84 ± 0.074,3.11 ± 0.055,2.65 ± 0.051,2.86 ± 0.043
GQVAIKTLVYLEKCEAE [YCS4],–,–,–,2.92 ± 0.24
QNPLNKSQNTALPSTHK [SIR4],2.62 ± 0.048,2.88 ± 0.049,2.33 ± 0.058,2.76 ± 0.037
KLSNIWMQRQLIKGDAG [SRB2],2.93 ± 0.23,1.16 ± 0.14,–,1.25 ± 0.26
ELENSSPELKAELRPLQ [RPS7A],3.04 ± 0.24,3.53 ± 0.11,2.97 ± 0.15,3.64 ± 0.15
ILSSLYLLSIWVKKFKW [CYT1],2.22 ± 0.091,1.5 ± 0.069,1.77 ± 0.089,1.3 ± 0.055
SSVEMLLDVVKGTEASN [YDL116W/NUP84],2.89 ± 0.071,3.1 ± 0.091,2.55 ± 0.052,2.9 ± 0.063
DVKTAEEASQLIEYMEN [NUT1],2.91 ± 0.086,3.04 ± 0.099,3.05 ± 0.08,3.1 ± 0.064
ILPTDGSAEFNVKYRAV [RPB7],2.57 ± 0.2,–,3.08 ± 0.13,3.48 ± 0.22
IKVPTYIRKLISSGLLY [SRB8],1.38 ± 0.048,1.27 ± 0.07,1.38 ± 0.085,1.2 ± 0.067
AECISLICSIGLHSSEY [ECM29],1.98 ± 0.053,2.38 ± 0.051,2.2 ± 0.092,2.62 ± 0.048
LPFYAILRSIPDKLLGV [COB],2.59 ± 0.041,2.07 ± 0.039,2.1 ± 0.055,1.99 ± 0.046
TPDTKNFFHAKKKDPVN [SNF12],3.29 ± 0.097,2.97 ± 0.079,3.1 ± 0.068,3.17 ± 0.1
MFDAFVSFYFEDGTIES [SIN4],2.33 ± 0.078,2.76 ± 0.062,2.52 ± 0.059,3.07 ± 0.062
TNGNNAGGGSNKSSVRP [MED6],3.19 ± 0.14,3.47 ± 0.097,2.77 ± 0.1,3.11 ± 0.088
DSQIVTPGELVTDDPIW [RRP4],2.78 ± 0.19,3.07 ± 0.11,2.76 ± 0.095,2.94 ± 0.077
YTEFIDSFIEKIIPKDI [ITC1],2.79 ± 0.12,2.11 ± 0.1,1.76 ± 0.12,1.81 ± 0.053
